What was measured:
crystal structure = biological target: the molecule itself; experiment: crystal structure
SEC = biological target: the molecule itself; experiment: SEC
Csa5 = biological target: T1, Csa5 (UniProt Q97Y90 1-150); experiment: fluorescence anisotropy
T1 sequence: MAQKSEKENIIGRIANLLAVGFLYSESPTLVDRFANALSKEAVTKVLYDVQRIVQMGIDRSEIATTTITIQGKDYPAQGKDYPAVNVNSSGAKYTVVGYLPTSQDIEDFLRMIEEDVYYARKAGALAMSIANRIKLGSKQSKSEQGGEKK

[1] = biological target: T2, Cas5 (Cas5/Cas7 core complex);Cas7 (Cas5/Cas7 core complex) (Sulfolobus solfataricus P2?;Sulfolobus …, UniProt Q97Y92;Q97Y91 1-240;1-321, |); experiment: fluorescence anisotropy
T2 sequence 1: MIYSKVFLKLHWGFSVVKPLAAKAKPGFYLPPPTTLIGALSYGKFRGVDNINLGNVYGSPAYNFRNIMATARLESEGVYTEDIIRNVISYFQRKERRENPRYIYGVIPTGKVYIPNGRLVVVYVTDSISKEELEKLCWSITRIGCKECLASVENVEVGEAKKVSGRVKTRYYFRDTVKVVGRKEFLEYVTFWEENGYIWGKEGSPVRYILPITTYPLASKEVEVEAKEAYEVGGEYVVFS
T2 sequence 2: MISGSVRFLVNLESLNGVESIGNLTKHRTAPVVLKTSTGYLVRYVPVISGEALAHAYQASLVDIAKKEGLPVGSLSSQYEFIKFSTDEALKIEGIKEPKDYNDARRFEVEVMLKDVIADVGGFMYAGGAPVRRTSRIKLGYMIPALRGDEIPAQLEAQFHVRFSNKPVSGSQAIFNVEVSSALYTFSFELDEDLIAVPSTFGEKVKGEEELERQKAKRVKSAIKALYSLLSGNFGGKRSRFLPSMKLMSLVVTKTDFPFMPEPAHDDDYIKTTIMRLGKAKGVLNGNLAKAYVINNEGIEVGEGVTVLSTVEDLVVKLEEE

B1: Sso1398 (Csa5 paralog), selenomethionyl derivative (natural protein, S. solfataricus)
chain: MEASEPVAETISKRFWTLIKMLRFYVVLRRFGYIDPLIYSIDPKQIKDVLSEALREFVSYTSSSSSRSIVIYDDPKNPVTAQAPCLVVAKRDEIPQNFPSIYRYTIYKIDKSSEYCISPLVVNDKYATLITPNESVIKEFFDKLDSNIQYARVLASLAVGGE
modifications: selenomethionine in place of methionine
Crystal structure
  binding result: binds

B2: Sso1398 wild type (Csa5 paralog) (natural protein, S. solfataricus)
chain: B1 chain
SEC
  binding result: binds

## CCTCGAGGGATCCGTCCTAGCAAGCCGCTGCTACCGGAAGCTTCTGGACC (ssDNA) [non-target ssDNA]
Csa5
  binding result: no binding

B3: crRNA (spacer 26, CRISPR locus A) (ssRNA)
RNA: AUUGAAAGACCAUACCCAACUUCUAACAACGUCGUUCUUAACAACGGAUUAAUCCCAAAA
Csa5
  binding result: no binding
[1]
  Kd: 1380 ± 140 nM

B4: crRNA/protospacer heteroduplex (DNA:RNA)
RNA: B3 RNA
DNA: GATCCTCTCCACGTTGTTAAGAACGACGTTGTTAGAAGTTGGGTATGGTTGGCTG
Csa5
  binding result: no binding

Source: article PMC3737334 (RNA Biology, 2013)
